Publication PMC7992989

Legend:
[1] = target: CP12 from Thalassiosira pseudonana, recombinant, after His tag removal with thrombin (Thalassiosira pseudonana); assay: native MS; native ESI-MS, 5 µM CP12 without histidine tag, 200 mM ammonium acetate pH 8.0, source temperature 20 °C; dimer to monomers
[2] = target: recombinant histidine tagged CP12 from Thalassiosira pseudonana (Thalassiosira pseudonana); assay: SEC-SAXS; 50 µL of His-tagged CP12 at 11 mg/mL on Agilent Bio-SEC-3 300 Å, 15 °C, 30 mM Tris, 50 mM NaCl, 2 mM EDTA, 1 mM TCEP, pH 7.5; mass from the forward scattering intensity

stoichiometry N [1] | stoichiometry N [2] | Substance
2 | – | CP12 from Thalassiosira pseudonana, recombinant, after His tag removal with thrombin (natural protein)
– | 2 | recombinant histidine tagged CP12 from Thalassiosira pseudonana (natural protein)
